The results in this text go back to patent US20030171551A1 (published 2003).

The target of the assay is T1, soluble extracellular domain of HER2/neu (ECD) (UniProt P04626 23-652, limits assumed).
T1 construct: extracellular domain; Immobilized on the IAsys microcuvette; also called soluble HER2/neu antigen
Description: IAsys optical biosensor, HER2/neu ECD immobilized on the cuvette.

B1: RANTES.Her2.IgG3 (other)
chain: SPYSSDTTPCCFAYIARPLPRAHIKEYFYTSGKCSNPAVVFVTRKNRQVCANPEKKWVREYINSLEMS
As a reminder, the Kd is the constant that tells how readily two partners part at equilibrium. Read a low Kd as higher affinity. As to B1, the Kd stood at 53 nM.
